# Reference: patent US20110118447A1
# Positions count from the first letter of the chain named. Numbers in names are those of the source.
# B1: C5A (XPA23) (antibody, V domains shown)
# VH: EVQLLESGGGLVQPGGSLRLSCAASGFTFSKYFMFWVRQAPGKGLEWVSVISPSGGMTRYADSVKGRFTISRDNSKNTLYLQMNSLRAEDTAVYYCARVGYGGNSDYWGQGTLVTVSS
# VL: DIQMTQSPSSVSASVGDRLTIICRASQDINRWLAWYQQTPGNAPKLLIHSATSLQSGVPSRFSGSGSGTDFTLTINSLQPEDFATYYCQQADSFPLTFGGGTKVEIK
# B2: C5A (XPA23) light chain variable region D92L (antibody, V domains shown)
# VH: B1 VH
# VL: B1 VL with D92L
# B3: C5A (XPA23) light chain variable region D92A (antibody, V domains shown)
# VH: B1 VH
# VL: B1 VL with D92A
# B4: C5A (XPA23) light chain variable region D92G (antibody, V domains shown)
# VH: B1 VH
# VL: B1 VL with D92G
# B5: C5A (XPA23) light chain variable region S93T (antibody, V domains shown)
# VH: B1 VH
# VL: B1 VL with S93T
# B6: C5A (XPA23) light chain variable region S93V (antibody, V domains shown)
# VH: B1 VH
# VL: B1 VL with S93V
# B7: C5A (XPA23) light chain variable region S93I (antibody, V domains shown)
# VH: B1 VH
# VL: B1 VL with S93I
# B8: C5A (XPA23) light chain variable region S93L (antibody, V domains shown)
# VH: B1 VH
# VL: B1 VL with S93L
# B9: C5A (XPA23) light chain variable region S93A (antibody, V domains shown)
# VH: B1 VH
# VL: B1 VL with S93A
# B10: C5A (XPA23) light chain variable region S93G (antibody, V domains shown)
# VH: B1 VH
# VL: B1 VL with S93G
# B11: C5A (XPA23) light chain variable region F94V (antibody, V domains shown)
# VH: B1 VH
# VL: B1 VL with F94V
# B12: C5A (XPA23) light chain variable region F94I (antibody, V domains shown)
# VH: B1 VH
# VL: B1 VL with F94I
# B13: C5A (XPA23) light chain variable region F94L (antibody, V domains shown)
# VH: B1 VH
# VL: B1 VL with F94L
# B14: C5A (XPA23) light chain variable region F94P (antibody, V domains shown)
# VH: B1 VH
# VL: B1 VL with F94P
# B15: C5A (XPA23) light chain variable region P95A (antibody, V domains shown)
# VH: B1 VH
# VL: B1 VL with P95A
# B16: C5A (XPA23) light chain variable region L96T (antibody, V domains shown)
# VH: B1 VH
# VL: B1 VL with L96T
# B17: C5A (XPA23) light chain variable region L96I (antibody, V domains shown)
# VH: B1 VH
# VL: B1 VL with L96I
# B18: C5A (XPA23) light chain variable region L96A (antibody, V domains shown)
# VH: B1 VH
# VL: B1 VL with L96A
# Target: binding partner of C5A (XPA23)
# Test: Biacore; internal control, L96 L is identical to the original C5A (XPA23)
row,Molecule,fold difference in affinity in comparison to original
1,B1,1.16 fold

# Target: binding partner (antigen) of ING-1, not given
# Test: Biacore; internal control identical to original
row,Molecule,fold difference in affinity vs original
1,"ING-1 antibody variable domain (original, unmodified)",1.38 fold

# Target: binding partner of C5A (XPA23)
# Test: Biacore (K-off), clones identical to parent C5A (XPA23)
row,Molecule,mean fold affinity of internal controls vs original
1,B1,1.03 fold

# Target: binding partner (antigen) of ING-1
# Test: Biacore, internal control
row,Molecule,fold difference in affinity vs original
1,"ING-1 (original, unmodified variable domain) (antibody)",1.38 fold

# Target: binding partner of C5A (XPA23)
# Test: Biacore, mutant vs original C5A (XPA23)
row,Molecule,fold difference in affinity in comparison to original
1,B2,0.14 fold
2,B3,0.4 fold
3,B4,0.26 fold
4,B5,1.47 fold
5,B6,3.81 fold
6,B7,1.35 fold
7,B8,1.08 fold
8,B9,1.16 fold
9,B10,0.75 fold
10,B11,0.2 fold
11,B12,0.88 fold
12,B13,0.55 fold
13,B14,0.17 fold
14,B15,3.83 fold
15,B16,0.06 fold
16,B17,0.67 fold
17,B18,0.26 fold
